The text below walks through data of PMC9122904, “Insights into the client protein release mechanism of the ATP-independent chaperone Spy” (Nature Communications, 2022).

Broadly, the Kd is a measure of binding affinity in units of concentration. A word on the koff: it is a measure of how fast the partners let go of each other.

Numbering of substitutions follows the chain as printed. Names and notes keep the numbering of the source.

Holding throughout (assay): BLI; Octet RED96; client biotinylated and loaded on streptavidin sensors; Spy or Spy variant in solution at 0.25, 0.5, 1, 1.5 and 2 μM; 40 mM HEPES, 150 mM NaCl, pH 7.5; Kd calculated as koff/kon
What all share (conditions): both partners purified

For one test, the target named is T1, Spy_(27-124) (UniProt P77754 50-147).
T1 construct: source: E. coli BL21 (DE3), purified (Ni-NTA, cation exchange, SEC); not shown: His6, N-terminal, cleaved; SUMO, N-terminal, cleaved
T1 sequence (looked up): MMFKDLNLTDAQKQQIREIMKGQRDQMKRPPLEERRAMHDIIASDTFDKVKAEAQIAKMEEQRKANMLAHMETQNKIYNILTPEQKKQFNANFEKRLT
In short, it runs like this:
(§1)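 Association was recorded with an Octet RED96 as streptavidin sensors carrying client proteins, biotinylated with EZ-link NHS-biotin at a 1:1 molar ratio, sat in 40 mM HEPES, 150 mM NaCl, pH 7.5 with 0.25 to 2 μM of the analyte protein (0.25, 0.5, 1, 1.5 and 2 μM). Dissociation followed after transfer to analyte-free buffer. Both wavelength-shift phases were fitted in SigmaPlot 12.0 to obtain koff and the observed association rate, whose dependence on analyte concentration yielded kon, with Kd defined as koff divided by kon.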

In another test the target is T2, Spy_(27-130) (UniProt P77754 50-153).
T2 construct: Spy chaperone, residues 27-130; source: E. coli BL21 (DE3), purified (Ni-NTA, cation exchange, SEC); not shown: His6, N-terminal, cleaved; SUMO, N-terminal, cleaved
T2 sequence (looked up): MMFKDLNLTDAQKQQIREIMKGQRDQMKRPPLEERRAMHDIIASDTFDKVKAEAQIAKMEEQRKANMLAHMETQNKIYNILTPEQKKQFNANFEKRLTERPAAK
A digest of the protocol:
as §1

The target of test [1] is T3, Spy wild type (Spy_(1-138)) (UniProt P77754 24-161).
T3 construct: Spy, ATP-independent periplasmic chaperone; also called WT; wt; source: E. coli BL21 (DE3), purified (Ni-NTA, cation exchange, SEC); not shown: His6, N-terminal, cleaved; SUMO, N-terminal, cleaved
T3 sequence (looked up): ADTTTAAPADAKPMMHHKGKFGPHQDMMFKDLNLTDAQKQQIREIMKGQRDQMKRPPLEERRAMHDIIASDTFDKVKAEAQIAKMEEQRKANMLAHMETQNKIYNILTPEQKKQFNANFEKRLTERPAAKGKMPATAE
A digest of the protocol: as §1

The next test has as its target T4, Spy_(24-127) (UniProt P77754 47-150).
T4 construct: Spy chaperone, residues 24-127; source: E. coli BL21 (DE3), purified (Ni-NTA, cation exchange, SEC); not shown: His6, N-terminal, cleaved; SUMO, N-terminal, cleaved
T4 sequence (looked up): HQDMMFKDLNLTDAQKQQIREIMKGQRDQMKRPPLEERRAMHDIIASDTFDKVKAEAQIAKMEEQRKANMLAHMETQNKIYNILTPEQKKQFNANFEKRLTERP
A digest of the protocol:
as §1

For the next test, the target named is T5, Spy_(29-124) (UniProt P77754 52-147).
T5 construct: also called termini-free Spy; source: E. coli BL21 (DE3), purified (Ni-NTA, cation exchange, SEC); not shown: His6, N-terminal, cleaved; SUMO, N-terminal, cleaved
T5 sequence (looked up): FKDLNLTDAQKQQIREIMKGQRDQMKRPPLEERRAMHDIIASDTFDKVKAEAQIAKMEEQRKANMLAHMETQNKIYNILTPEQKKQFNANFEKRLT
A digest of the protocol: as §1

A further test addresses T6, Spy_(29-124) R61D R62D (UniProt P77754 52-147, R61D | R62D).
T6 construct: source: E. coli BL21 (DE3), purified (Ni-NTA, cation exchange, SEC); not shown: His6, N-terminal, cleaved; SUMO, N-terminal, cleaved
T6 sequence (looked up): T5 sequence (looked up) with R33D, R34D

Another test concerns the target T7, Spy_(29-124) K121D R122D (UniProt P77754 52-147, K121D | R122D).
T7 construct: source: E. coli BL21 (DE3), purified (Ni-NTA, cation exchange, SEC); not shown: His6, N-terminal, cleaved; SUMO, N-terminal, cleaved
T7 sequence (looked up): T5 sequence (looked up) with K93D, R94D

A further test addresses T8, Spy_(29-124) R89D (UniProt P77754 52-147, R89D).
T8 construct: source: E. coli BL21 (DE3), purified (Ni-NTA, cation exchange, SEC); not shown: His6, N-terminal, cleaved; SUMO, N-terminal, cleaved
T8 sequence (looked up): T5 sequence (looked up) with R61D

B1: Im7 H40W L53A I54A (natural protein)
chain: MELKNSISDYTEAEFVQLLKEIEKENVAATDDVLDVLLEWFVKITEHPDGTDAAYYPSDNRDDSPEGIVKEIKEWRAANGKPGFKQG
modifications: biotin (EZ-link NHS-biotin, 1:1 molar ratio of biotin to protein)
notes: Im7 (colicin E7 immunity protein) with H40W L53A I54A; Spy was made with an N-terminal His6-SUMO tag that was cleaved; also called Im7AAW; partially folded client; source: purified by a similar procedure to Spy
For the molecule B1, the Kd in the test with Spy_(27-124) is 0.283 µM; with Spy_(27-130) it was 0.297 µM; in test [1], 0.643 µM; with Spy_(24-127) it was 1.73 µM; in the test with Spy_(29-124) it was 0.323 µM. In addition, the koff with Spy_(29-124) R61D R62D is 0.262 s⁻¹; in the test with Spy_(29-124) K121D R122D, 0.349 s⁻¹; with Spy_(29-124) R89D it was 0.125 s⁻¹.
